Source: patent US20200002436A1 (DRAGONFLY THERAPEUTICS, published 2020)

T1: human recombinant NKG2D-Fc (human, UniProt P26718 73-216)
T1 construct: extracellular domain; also called recombinant human NKG2D-Fc; NKG2D-Fc fusion protein; not shown: human IgG1 Fc domain
T1 sequence (looked up): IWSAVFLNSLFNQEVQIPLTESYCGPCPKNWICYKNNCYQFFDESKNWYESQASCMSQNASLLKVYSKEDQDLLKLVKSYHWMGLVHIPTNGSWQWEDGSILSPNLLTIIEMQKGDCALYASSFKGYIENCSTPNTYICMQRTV

T2: mouse recombinant NKG2D-Fc (mouse; human, UniProt O54709 90-232)
T2 construct: extracellular domain; also called recombinant mouse NKG2D-Fc; Mouse NKG2D-Fc-biotin; not shown: human IgG1 Fc domain
T2 sequence (looked up): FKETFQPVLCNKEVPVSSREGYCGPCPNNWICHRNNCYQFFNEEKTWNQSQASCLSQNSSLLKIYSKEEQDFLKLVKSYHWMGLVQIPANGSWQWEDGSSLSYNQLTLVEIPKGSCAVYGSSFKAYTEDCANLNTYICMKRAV

T3: cynomolgus recombinant NKG2D-Fc (cynomolgus; human, UniProt P61252 73-216)
T3 construct: extracellular domain; also called cynomolgus NKG2D-Fc; not shown: human IgG1 Fc domain
T3 sequence (looked up): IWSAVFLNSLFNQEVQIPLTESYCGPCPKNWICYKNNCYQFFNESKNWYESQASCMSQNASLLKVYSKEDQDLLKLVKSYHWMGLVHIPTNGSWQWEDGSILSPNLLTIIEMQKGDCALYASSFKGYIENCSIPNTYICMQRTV


Tests used:
Assay in all cases: ELISA on coated NKG2D-Fc;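 further: titrated NKG2D binders added to plates coated with human, mouse or cynomolgus NKG2D ectodomain–human IgG1 Fc fusions, detected by HRP anti-human kappa antibody with TMB, absorbance at 450 nm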
[1] = molecular target: T1, human recombinant NKG2D-Fc
Excerpt: (§1) The nucleic acid sequences of human, mouse or cynomolgus NKG2D ectodomains were fused with nucleic acid sequences encoding human IgG1 Fc domains and introduced into mammalian cells to be expressed. After purification, NKG2D-Fc fusion proteins were adsorbed to wells of microplates. After blocking the wells with bovine serum albumin to prevent non-specific binding, NKG2D-binding domains were titrated and added to the wells pre-adsorbed with NKG2D-Fc fusion proteins. Primary antibody binding was detected using a secondary antibody which was conjugated to horseradish peroxidase and specifically recognizes a human kappa light chain to avoid Fc cross-reactivity. 3,3′,5,5′-Tetramethylbenzidine (TMB), a substrate for horseradish peroxidase, was added to the wells to visualize the binding signal, whose absorbance was measured at 450 nm and corrected at 540 nM.

[2] = molecular target: T2, mouse recombinant NKG2D-Fc
Excerpt: as §1

[3] = molecular target: T3, cynomolgus recombinant NKG2D-Fc
Excerpt: as §1

Row | Binder | binding result [1] | binding result [2] | binding result [3]
1 | ADI-27705 (antibody, V domains shown) VH: QVQLQQWGAGLLKPSETLSLTCAVYGGSFSGYYWSWIRQPPGKGLEWIGEIDHSGSTNYNPSLKSRVTISVDTSKNQFSLKLSSVTAADTAVYYCARARGPWSFDPWGQGTLVTVSS VL: not shown | binds | binds | binds
2 | ADI-28226 (antibody, V domains shown, also called C26) VH: QVQLQQWGAGLLKPSETLSLTCAVYGGSFSGYYWSWIRQPPGKGLEWIGEIDHSGSTNYNPSLKSRVTISVDTSKNQFSLKLSSVTAADTAVYYCARARGPWSFDPWGQGTLVTVSS VL: DIQMTQSPSTLSASVGDRVTITCRASQSISSWLAWYQQKPGKAPKLLIYKASSLESGVPSRFSGSGSGTEFTLTISSLQPDDFATYYCQQYGSFPITFGGGTKVEIK | binds | binds | binds
3 | ADI-29429 (antibody, V domains shown) VH: QVQLQQWGAGLLKPSETLSLTCAVYGGSFSGYYWSWIRQPPGKGLEWIGEIDHSGSTNYNPSLKSRVTISVDTSKNQFSLKLSSVTAADTAVYYCARARGPWSFDPWGQGTLVTVSS VL: DIQMTQSPSTLSASVGDRVTITCRASQSIGSWLAWYQQKPGKAPKLLIYKASSLESGVPSRFSGSGSGTEFTLTISSLQPDDFATYYCQQYELYSYTFGGGTKVEIK | binds | binds | binds
4 | ADI-27727 (antibody, V domains shown) VH: QVQLVQSGAEVKKPGSSVKVSCKASGGTFSSYAISWVRQAPGQGLEWMGGIIPIFGTANYAQKFQGRVTITADESTSTAYMELSSLRSEDTAVYYCARGDSSIRHAYYYYGMDVWGQGTTVTVSS VL: not shown | binds | binds | binds
5 | ADI-29443 (antibody, V domains shown, also called F43) VH: QLQLQESGPGLVKPSETLSLTCTVSGGSISSSSYYWGWIRQPPGKGLEWIGSIYYSGSTYYNPSLKSRVTISVDTSKNQFSLKLSSVTAADTAVYYCARGSDRFHPYFDYWGQGTLVTVSS VL: EIVLTQSPATLSLSPGERATLSCRASQSVSRYLAWYQQKPGQAPRLLIYDASNRATGIPARFSGSGSGTDFTLTISSLEPEDFAVYYCQQFDTWPPTFGGGTKVEIK | binds | binds | 
6 | ADI-29403 (antibody, V domains shown) VH: QVQLQQWGAGLLKPSETLSLTCAVYGGSFSGYYWSWIRQPPGKGLEWIGEIDHSGSTNYNPSLKSRVTISVDTSKNQFSLKLSSVTAADTAVYYCARARGPWSFDPWGQGTLVTVSS VL: not shown | binds | binds | binds
7 | ADI-27740 (antibody, V domains shown, also called A40) VH: QVQLQQWGAGLLKPSETLSLTCAVYGGSFSGYYWSWIRQPPGKGLEWIGEIDHSGSTNYNPSLKSRVTISVDTSKNQFSLKLSSVTAADTAVYYCARARGPWSFDPWGQGTLVTVSS VL: DIQMTQSPSTLSASVGDRVTITCRASQSIGSWLAWYQQKPGKAPKLLIYKASSLESGVPSRFSGSGSGTEFTLTISSLQPDDFATYYCQQYHSFYTFGGGTKVEIK | binds | binds | binds
8 | ADI-27741 (antibody, V domains shown) VH: QVQLQQWGAGLLKPSETLSLTCAVYGGSFSGYYWSWIRQPPGKGLEWIGEIDHSGSTNYNPSLKSRVTISVDTSKNQFSLKLSSVTAADTAVYYCARARGPWSFDPWGQGTLVTVSS VL: DIQMTQSPSTLSASVGDRVTITCRASQSIGSWLAWYQQKPGKAPKLLIYKASSLESGVPSRFSGSGSGTEFTLTISSLQPDDFATYYCQQSNSYYTFGGGTKVEIK | binds | binds | binds
9 | ADI-27743 (antibody, V domains shown) VH: QVQLQQWGAGLLKPSETLSLTCAVYGGSFSGYYWSWIRQPPGKGLEWIGEIDHSGSTNYNPSLKSRVTISVDTSKNQFSLKLSSVTAADTAVYYCARARGPWSFDPWGQGTLVTVSS VL: not shown | binds | binds | binds
10 | ADI-29399 (antibody, V domains shown) VH: QVQLQQWGAGLLKPSETLSLTCAVYGGSFSGYYWSWIRQPPGKGLEWIGEIDHSGSTNYNPSLKSRVTISVDTSKNQFSLKLSSVTAADTAVYYCARARGPWSFDPWGQGTLVTVSS VL: not shown | binds | binds | binds
11 | ADI-29401 (antibody, V domains shown) VH: QVQLQQWGAGLLKPSETLSLTCAVYGGSFSGYYWSWIRQPPGKGLEWIGEIDHSGSTNYNPSLKSRVTISVDTSKNQFSLKLSSVTAADTAVYYCARARGPWSFDPWGQGTLVTVSS VL: DIQMTQSPSTLSASVGDRVTITCRASQSIGSWLAWYQQKPGKAPKLLIYKASSLESGVPSRFSGSGSGTEFTLTISSLQPDDFATYYCQQYDIYPTFGGGTKVEIK | binds | binds | binds
12 | ADI-29404 (antibody, V domains shown, also called F04) VH: QVQLQQWGAGLLKPSETLSLTCAVYGGSFSGYYWSWIRQPPGKGLEWIGEIDHSGSTNYNPSLKSRVTISVDTSKNQFSLKLSSVTAADTAVYYCARARGPWSFDPWGQGTLVTVSS VL: DIQMTQSPSTLSASVGDRVTITCRASQSISSWLAWYQQKPGKAPKLLIYKASSLESGVPSRFSGSGSGTEFTLTISSLQPDDFATYYCEQYDSYPTFGGGTKVEIK | binds | binds | binds
13 | ADI-29405 (antibody, V domains shown) VH: QVQLQQWGAGLLKPSETLSLTCAVYGGSFSGYYWSWIRQPPGKGLEWIGEIDHSGSTNYNPSLKSRVTISVDTSKNQFSLKLSSVTAADTAVYYCARARGPWSFDPWGQGTLVTVSS VL: DIQMTQSPSTLSASVGDRVTITCRASQSISSWLAWYQQKPGKAPKLLIYKASSLESGVPSRFSGSGSGTEFTLTISSLQPDDFATYYCQQYGSFPTFGGGTKVEIK | binds | binds | binds
14 | ADI-29407 (antibody, V domains shown) VH: QVQLQQWGAGLLKPSETLSLTCAVYGGSFSGYYWSWIRQPPGKGLEWIGEIDHSGSTNYNPSLKSRVTISVDTSKNQFSLKLSSVTAADTAVYYCARARGPWSFDPWGQGTLVTVSS VL: DIQMTQSPSTLSASVGDRVTITCRASQSISSWLAWYQQKPGKAPKLLIYKASSLESGVPSRFSGSGSGTEFTLTISSLQPDDFATYYCQQYQSFPTFGGGTKVEIK | binds | binds | binds
15 | ADI-29419 (antibody, V domains shown) VH: QVQLQQWGAGLLKPSETLSLTCAVYGGSFSGYYWSWIRQPPGKGLEWIGEIDHSGSTNYNPSLKSRVTISVDTSKNQFSLKLSSVTAADTAVYYCARARGPWSFDPWGQGTLVTVSS VL: not shown | binds | binds | binds
16 | ADI-29421 (antibody, V domains shown) VH: QVQLQQWGAGLLKPSETLSLTCAVYGGSFSGYYWSWIRQPPGKGLEWIGEIDHSGSTNYNPSLKSRVTISVDTSKNQFSLKLSSVTAADTAVYYCARARGPWSFDPWGQGTLVTVSS VL: not shown | binds | binds | binds
17 | ADI-29424 (antibody, V domains shown) VH: QVQLQQWGAGLLKPSETLSLTCAVYGGSFSGYYWSWIRQPPGKGLEWIGEIDHSGSTNYNPSLKSRVTISVDTSKNQFSLKLSSVTAADTAVYYCARARGPWSFDPWGQGTLVTVSS VL: DIQMTQSPSTLSASVGDRVTITCRASQSISSWLAWYQQKPGKAPKLLIYKASSLESGVPSRFSGSGSGTEFTLTISSLQPDDFATYYCQQYDSFITFGGGTKVEIK | binds | binds | binds
18 | ADI-29425 (antibody, V domains shown) VH: QVQLQQWGAGLLKPSETLSLTCAVYGGSFSGYYWSWIRQPPGKGLEWIGEIDHSGSTNYNPSLKSRVTISVDTSKNQFSLKLSSVTAADTAVYYCARARGPWSFDPWGQGTLVTVSS VL: not shown | binds | binds | binds
19 | ADI-29426 (antibody, V domains shown) VH: QVQLQQWGAGLLKPSETLSLTCAVYGGSFSGYYWSWIRQPPGKGLEWIGEIDHSGSTNYNPSLKSRVTISVDTSKNQFSLKLSSVTAADTAVYYCARARGPWSFDPWGQGTLVTVSS VL: DIQMTQSPSTLSASVGDRVTITCRASQSIGSWLAWYQQKPGKAPKLLIYKASSLESGVPSRFSGSGSGTEFTLTISSLQPDDFATYYCQQYHSFPTFGGGTKVEIK | binds | binds | binds
20 | ADI-29447 (antibody, V domains shown, also called F47) VH: QVQLQQWGAGLLKPSETLSLTCAVYGGSFSGYYWSWIRQPPGKGLEWIGEIDHSGSTNYNPSLKSRVTISVDTSKNQFSLKLSSVTAADTAVYYCARARGPWSFDPWGQGTLVTVSS VL: DIQMTQSPSTLSASVGDRVTITCRASQSISSWLAWYQQKPGKAPKLLIYKASSLESGVPSRFSGSGSGTEFTLTISSLQPDDFATYYCQQYDTFITFGGGTKVEIK | binds | binds | binds
